Measurements taken from the supplement of paper PMC9112550, “Optimization of the antimicrobial peptide Bac7 by deep mutational scanning” (BMC Biology, 2022).

What follows are sequences tested on Escherichia coli TOP10 (assay: shrunken log2 fold change of peptide-encoding DNA abundance (4.5 h post-induction vs induction); higher = less antimicrobial activity (less host growth inhibition)). Details: time post-induction: 4.5 h; library: site-saturation at positions 5, 18, 19, 20.
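Note: peptides expressed intracellularly from a pBAD plasmid library in pooled LB shake-flask culture, induced with 0.3% L-arabinose, DNA abundance read by NGS, three biological replicates, DESeq2 with apeglm shrinkage.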

Row | Sequence | shrunken log2 fold change
1 | RRIRCRPPRLPRPRPRPMQQPRP | -0.036
2 | RRIRCRPPRLPRPRPRPMRMPRP | 0.22
3 | RRIRCRPPRLPRPRPRPMRRPRP | 0.163
4 | RRIRCRPPRLPRPRPRPMSNPRP | -0.64
5 | RRIRCRPPRLPRPRPRPMTNPRP | -0.434
6 | RRIRCRPPRLPRPRPRPMVVPRP | -0.0292
7 | RRIRCRPPRLPRPRPRPMWAPRP | 0.378
8 | RRIRCRPPRLPRPRPRPMWFPRP | -0.254
9 | RRIRCRPPRLPRPRPRPNAAPRP | 0.975
10 | RRIRCRPPRLPRPRPRPNDIPRP | -0.762
11 | RRIRCRPPRLPRPRPRPNDMPRP | -0.328
12 | RRIRCRPPRLPRPRPRPNDPPRP | 0.0328
13 | RRIRCRPPRLPRPRPRPNDSPRP | -0.221
14 | RRIRCRPPRLPRPRPRPNFMPRP | -0.448
15 | RRIRCRPPRLPRPRPRPNGDPRP | 0.105
16 | RRIRCRPPRLPRPRPRPNGLPRP | -0.132
17 | RRIRCRPPRLPRPRPRPNHVPRP | -0.248
18 | RRIRCRPPRLPRPRPRPNITPRP | -0.884
19 | RRIRCRPPRLPRPRPRPNKIPRP | -0.461
20 | RRIRCRPPRLPRPRPRPNKLPRP | -0.283
21 | RRIRCRPPRLPRPRPRPNKQPRP | -0.201
22 | RRIRCRPPRLPRPRPRPNLEPRP | -0.267
23 | RRIRCRPPRLPRPRPRPNMQPRP | -0.423
24 | RRIRCRPPRLPRPRPRPNMVPRP | 0.0392
25 | RRIRCRPPRLPRPRPRPNNHPRP | -0.731

Row | Sequence | shrunken log2 fold change
26 | RRIRCRPPRLPRPRPRPNNLPRP | -0.765
27 | RRIRCRPPRLPRPRPRPNPAPRP | 0.101
28 | RRIRCRPPRLPRPRPRPNPTPRP | 0.211
29 | RRIRCRPPRLPRPRPRPNPVPRP | -0.209
30 | RRIRCRPPRLPRPRPRPNSCPRP | -0.394
31 | RRIRCRPPRLPRPRPRPNSIPRP | -0.314
32 | RRIRCRPPRLPRPRPRPNVVPRP | 0.0385
33 | RRIRCRPPRLPRPRPRPNWCPRP | -0.0555
34 | RRIRCRPPRLPRPRPRPNWDPRP | -0.185
35 | RRIRCRPPRLPRPRPRPNWNPRP | -0.514
36 | RRIRCRPPRLPRPRPRPNYSPRP | -0.522
37 | RRIRCRPPRLPRPRPRPPAGPRP | 0.79
38 | RRIRCRPPRLPRPRPRPPCRPRP | 0.609
39 | RRIRCRPPRLPRPRPRPPDIPRP | 0.409
40 | RRIRCRPPRLPRPRPRPPEEPRP | 0.301
41 | RRIRCRPPRLPRPRPRPPEIPRP | 0.0794
42 | RRIRCRPPRLPRPRPRPPEWPRP | 0.575
43 | RRIRCRPPRLPRPRPRPPFCPRP | 0.291
44 | RRIRCRPPRLPRPRPRPPFMPRP | 0.114
45 | RRIRCRPPRLPRPRPRPPGWPRP | 0.612
46 | RRIRCRPPRLPRPRPRPPHKPRP | 0.68
47 | RRIRCRPPRLPRPRPRPPHNPRP | 0.919
48 | RRIRCRPPRLPRPRPRPPIHPRP | -0.248
49 | RRIRCRPPRLPRPRPRPPIQPRP | 0.369
50 | RRIRCRPPRLPRPRPRPPIRPRP | 0.0846

Row | Sequence | shrunken log2 fold change
51 | RRIRCRPPRLPRPRPRPPIVPRP | -0.089
52 | RRIRCRPPRLPRPRPRPPLKPRP | 0.353
53 | RRIRCRPPRLPRPRPRPPMAPRP | 0.263
54 | RRIRCRPPRLPRPRPRPPMKPRP | 0.242
55 | RRIRCRPPRLPRPRPRPPNIPRP | -0.573
56 | RRIRCRPPRLPRPRPRPPQKPRP | 0.627
57 | RRIRCRPPRLPRPRPRPPRKPRP | 1.01
58 | RRIRCRPPRLPRPRPRPPRYPRP | 0.753
59 | RRIRCRPPRLPRPRPRPPSDPRP | 0.213
60 | RRIRCRPPRLPRPRPRPPVCPRP | 0.222
61 | RRIRCRPPRLPRPRPRPPVPPRP | 0.587
62 | RRIRCRPPRLPRPRPRPPWDPRP | 0.526
63 | RRIRCRPPRLPRPRPRPPYCPRP | -0.365
64 | RRIRCRPPRLPRPRPRPPYVPRP | -0.455
65 | RRIRCRPPRLPRPRPRPQCWPRP | 0.0604
66 | RRIRCRPPRLPRPRPRPQERPRP | -0.028
67 | RRIRCRPPRLPRPRPRPQESPRP | 0.192
68 | RRIRCRPPRLPRPRPRPQGNPRP | -0.695
69 | RRIRCRPPRLPRPRPRPQGRPRP | 0.445
70 | RRIRCRPPRLPRPRPRPQGWPRP | -0.0139
71 | RRIRCRPPRLPRPRPRPQHRPRP | -0.246
72 | RRIRCRPPRLPRPRPRPQHSPRP | -0.764
73 | RRIRCRPPRLPRPRPRPQHTPRP | -0.0159
74 | RRIRCRPPRLPRPRPRPQISPRP | -0.785
75 | RRIRCRPPRLPRPRPRPQIYPRP | -0.579

Row | Sequence | shrunken log2 fold change
76 | RRIRCRPPRLPRPRPRPQMMPRP | -0.346
77 | RRIRCRPPRLPRPRPRPQMTPRP | 0.218
78 | RRIRCRPPRLPRPRPRPQNPPRP | -0.144
79 | RRIRCRPPRLPRPRPRPQNSPRP | -0.194
80 | RRIRCRPPRLPRPRPRPQPIPRP | -0.335
81 | RRIRCRPPRLPRPRPRPQQAPRP | 0.239
82 | RRIRCRPPRLPRPRPRPQQMPRP | 0.013
83 | RRIRCRPPRLPRPRPRPQQWPRP | -0.0268
84 | RRIRCRPPRLPRPRPRPQRAPRP | -0.012
85 | RRIRCRPPRLPRPRPRPQRKPRP | 0.203
86 | RRIRCRPPRLPRPRPRPQVHPRP | -0.233
87 | RRIRCRPPRLPRPRPRPQVIPRP | -0.386
88 | RRIRCRPPRLPRPRPRPRDCPRP | 0.313
89 | RRIRCRPPRLPRPRPRPRFDPRP | 0.136
90 | RRIRCRPPRLPRPRPRPRFGPRP | 0.316
91 | RRIRCRPPRLPRPRPRPRGGPRP | 0.508
92 | RRIRCRPPRLPRPRPRPRGIPRP | 0.094
93 | RRIRCRPPRLPRPRPRPRHCPRP | 0.423
94 | RRIRCRPPRLPRPRPRPRHDPRP | -0.234
95 | RRIRCRPPRLPRPRPRPRICPRP | 0.183
96 | RRIRCRPPRLPRPRPRPRIHPRP | -0.226
97 | RRIRCRPPRLPRPRPRPRINPRP | -0.0891
98 | RRIRCRPPRLPRPRPRPRIQPRP | -0.196
99 | RRIRCRPPRLPRPRPRPRKHPRP | 0.0674
100 | RRIRCRPPRLPRPRPRPRKSPRP | 0.126

Row | Sequence | shrunken log2 fold change
101 | RRIRCRPPRLPRPRPRPRLSPRP | 0.0865
102 | RRIRCRPPRLPRPRPRPRLTPRP | 0.0689
103 | RRIRCRPPRLPRPRPRPRQAPRP | 0.00566
104 | RRIRCRPPRLPRPRPRPRQFPRP | 0.0823
105 | RRIRCRPPRLPRPRPRPRRTPRP | 0.54
106 | RRIRCRPPRLPRPRPRPRSLPRP | 0.197
107 | RRIRCRPPRLPRPRPRPRTAPRP | 0.304
108 | RRIRCRPPRLPRPRPRPRTLPRP | 0.209
109 | RRIRCRPPRLPRPRPRPRWKPRP | 0.847
110 | RRIRCRPPRLPRPRPRPSAIPRP | -0.014
111 | RRIRCRPPRLPRPRPRPSCWPRP | 0.2
112 | RRIRCRPPRLPRPRPRPSDCPRP | -0.387
113 | RRIRCRPPRLPRPRPRPSDDPRP | 0.334
114 | RRIRCRPPRLPRPRPRPSDKPRP | -0.207
115 | RRIRCRPPRLPRPRPRPSFQPRP | -0.384
116 | RRIRCRPPRLPRPRPRPSGTPRP | -0.0132
117 | RRIRCRPPRLPRPRPRPSHMPRP | -0.838
118 | RRIRCRPPRLPRPRPRPSIQPRP | -0.655
119 | RRIRCRPPRLPRPRPRPSKGPRP | -0.212
120 | RRIRCRPPRLPRPRPRPSLKPRP | -0.23
121 | RRIRCRPPRLPRPRPRPSLNPRP | -0.341
122 | RRIRCRPPRLPRPRPRPSMIPRP | -0.892
123 | RRIRCRPPRLPRPRPRPSNYPRP | -0.348
124 | RRIRCRPPRLPRPRPRPSPMPRP | 0.0865
125 | RRIRCRPPRLPRPRPRPSPQPRP | 0.445

Row | Sequence | shrunken log2 fold change
126 | RRIRCRPPRLPRPRPRPSRCPRP | 0.137
127 | RRIRCRPPRLPRPRPRPSRGPRP | 0.333
128 | RRIRCRPPRLPRPRPRPSRLPRP | 0.0589
129 | RRIRCRPPRLPRPRPRPSSIPRP | -0.565
130 | RRIRCRPPRLPRPRPRPSVSPRP | -0.185
131 | RRIRCRPPRLPRPRPRPSYEPRP | -0.374
132 | RRIRCRPPRLPRPRPRPSYFPRP | -0.193
133 | RRIRCRPPRLPRPRPRPTAQPRP | 0.301
134 | RRIRCRPPRLPRPRPRPTCHPRP | 0.0303
135 | RRIRCRPPRLPRPRPRPTCMPRP | 0.173
136 | RRIRCRPPRLPRPRPRPTDIPRP | -0.623
137 | RRIRCRPPRLPRPRPRPTEGPRP | 0.284
138 | RRIRCRPPRLPRPRPRPTEKPRP | -0.293
139 | RRIRCRPPRLPRPRPRPTLAPRP | 0.645
140 | RRIRCRPPRLPRPRPRPTLEPRP | 0.0452
141 | RRIRCRPPRLPRPRPRPTLQPRP | 0.279
142 | RRIRCRPPRLPRPRPRPTMRPRP | 0.529
143 | RRIRCRPPRLPRPRPRPTMYPRP | -0.541
144 | RRIRCRPPRLPRPRPRPTNDPRP | -0.218
145 | RRIRCRPPRLPRPRPRPTNEPRP | -0.213
146 | RRIRCRPPRLPRPRPRPTNTPRP | -0.364
147 | RRIRCRPPRLPRPRPRPTPHPRP | 0.821
148 | RRIRCRPPRLPRPRPRPTPLPRP | 0.522
149 | RRIRCRPPRLPRPRPRPTQFPRP | 0.167
150 | RRIRCRPPRLPRPRPRPTQLPRP | 0.338
